According to patent US20090036374A1:
Values belong to the substance of their own block, whether it stands above or below them.

Key:
[1] = target: hepatocyte growth factor (HGF) (UniProt P14210); test: cell-based or functional assay
[2] = target: Met on MDCK II cells (Madin-Darby canine kidney) (canine (cell line MDCK II)) (UniProt Q75ZY9); test: cell-based or functional assay

amount of inhibitory protein that gave roughly 50% inhibition of scattering, HGF ~5-7 ng/ml, MDCK and HT115 [1]: 0.1 to 1 µg/mL
inhibition of HGF-induced Met phosphorylation, A549 and MDA-MB-231 cells, doses higher than 3-10 nM [1]: > 90%
inhibition of HGF-induced phosphorylation of Met Y1230/4/5, MDA-MB-231 cells, 3 nM variant [1]: > 60%
inhibition of HGF-induced urokinase upregulation, MDCK II, 10 ng/ml HGF, 3 nM variant [1]: 60 to 80%
inhibition of HGF-induced urokinase upregulation, MDCK II, 10 ng/ml HGF, doses higher than 10 nM [1]: > 95%
scattering score, HT115, inhibitor 1 µg/ml, HGF 7 ng/ml [1]: 1 score 1-5
scattering score, HT115, inhibitor 5 µg/ml, HGF 7 ng/ml [1]: 1 score 1-5
scattering score, HT115, inhibitor 10 µg/ml, HGF 7 ng/ml [1]: 1 score 1-5
scattering score, HT115, inhibitor 30 µg/ml, HGF 50 ng/ml [1]: 2 score 1-5
scattering score, MDCK, inhibitor 1 µg/ml, HGF 5 ng/ml [1]: 2 score 1-5
scattering score, MDCK, inhibitor 5 µg/ml, HGF 5 ng/ml [1]: 2 score 1-5
Substance: Met-885-Fc (Met-885 splice variant fused to human IgG1 Fc) (Fc fusion)

amount of inhibitory protein that gave roughly 50% inhibition of scattering, HGF ~5-7 ng/ml, MDCK and HT115 [1]: 0.1 to 1 µg/mL
inhibition of HGF-induced Met phosphorylation, A549 and MDA-MB-231 cells, doses higher than 3-10 nM [1]: > 90%
inhibition of HGF-induced phosphorylation of Met Y1230/4/5, MDA-MB-231 cells, 3 nM variant [1]: > 60%
inhibition of HGF-induced urokinase upregulation, MDCK II, 10 ng/ml HGF, 3 nM variant [1]: 60 to 80%
inhibition of HGF-induced urokinase upregulation, MDCK II, 10 ng/ml HGF, doses higher than 10 nM [1]: > 95%
scattering score, MDCK, inhibitor 10 µg/ml, HGF 50 ng/ml [1]: 3 score 1-5
scattering score, MDCK, inhibitor 10 µg/ml, HGF 100 ng/ml [1]: 5 score 1-5
scattering score, MDCK, inhibitor 30 µg/ml, HGF 50 ng/ml [1]: 2 score 1-5
scattering score, MDCK, inhibitor 100 µg/ml, HGF 100 ng/ml [1]: 1 score 1-5
Substance: Met-934-Fc (Met-934 splice variant fused to human IgG1 Fc) (Fc fusion)

Further lines, the substance ahead of its results:

Substance: Met-877 His tag protein (Met-877 splice variant with C-terminal Strep II and 8xHis tags) (from UniProt P08581 25-861) (receptor)
amount of inhibitory protein that gave roughly 50% inhibition of scattering, HGF ~5-7 ng/ml, MDCK and HT115 [1]: 0.1 to 1 µg/mL
inhibition of HGF-induced Met tyrosine phosphorylation, A431 or A549 cells, 100 µg/ml Met-877, 10 ng/ml HGF [1]: 70%
inhibition of Met tyrosine phosphorylation, NCI-H441 cells (constitutive phosphorylation), 100 µg/ml Met-877, 10 ng/ml HGF [1]: 40%
scattering score, HT115, inhibitor 1 µg/ml, HGF 7 ng/ml [1]: 1 score 1-5
scattering score, HT115, inhibitor 5 µg/ml, HGF 7 ng/ml [1]: 1 score 1-5
scattering score, HT115, inhibitor 10 µg/ml, HGF 7 ng/ml [1]: 1 score 1-5
scattering score, HT115, inhibitor 10 µg/ml, HGF 50 ng/ml [1]: 3 score 1-5
scattering score, HT115, inhibitor 100 µg/ml, HGF 50 ng/ml [1]: 1 score 1-5
scattering score, MDCK, inhibitor 0.1 µg/ml, HGF 5 ng/ml [1]: 5 score 1-5
scattering score, MDCK, inhibitor 30 µg/ml, HGF 50 ng/ml [1]: 4 score 1-5
scattering score, MDCK, inhibitor 100 µg/ml, HGF 50 ng/ml [1]: 3 score 1-5

Substance: Met-877-Fc (Met-877 splice variant fused to human IgG1 Fc) (Fc fusion)
amount of inhibitory protein that gave roughly 50% inhibition of scattering, HGF ~5-7 ng/ml, MDCK and HT115 [1]: 0.1 to 1 µg/mL
inhibition of HGF-induced Met phosphorylation, A549 and MDA-MB-231 cells, doses higher than 3-10 nM [1]: > 90%
inhibition of HGF-induced phosphorylation of Met Y1230/4/5, MDA-MB-231 cells, 3 nM variant [1]: > 60%
inhibition of HGF-induced proliferation of AsPC-1 cells (BrdU incorporation), 10 ng/ml HGF, 877-Fc at 100 and 300 nM [1]: 90%
inhibition of HGF-induced urokinase upregulation, MDCK II, 10 ng/ml HGF, 3 nM variant [1]: 60 to 80%
inhibition of HGF-induced urokinase upregulation, MDCK II, 10 ng/ml HGF, 10 nM variant [1]: 80%
inhibition of HGF-induced urokinase upregulation, MDCK II, 10 ng/ml HGF, doses higher than 10 nM [1]: > 95%
inhibition of HGF-induced urokinase upregulation, MDCK II, 10 ng/ml HGF, variant at 50 nM or more [1]: > 95%
scattering score, HT115, inhibitor 0.1 µg/ml, HGF 3 ng/ml [1]: 2 score 1-5
scattering score, HT115, inhibitor 0.1 µg/ml, HGF 5 ng/ml [1]: 3 score 1-5
scattering score, HT115, inhibitor 5 µg/ml, HGF 5 ng/ml [1]: 1 score 1-5
scattering score, HT115, inhibitor 5 µg/ml, HGF 7 ng/ml [1]: 1 score 1-5
scattering score, HT115, inhibitor 10 µg/ml, HGF 1 ng/ml [1]: 1 score 1-5
scattering score, HT115, inhibitor 10 µg/ml, HGF 3 ng/ml [1]: 1 score 1-5
scattering score, HT115, inhibitor 10 µg/ml, HGF 5 ng/ml [1]: 1 score 1-5
scattering score, HT115, inhibitor 10 µg/ml, HGF 7 ng/ml [1]: 1 score 1-5
scattering score, HT115, inhibitor 10 µg/ml, HGF 50 ng/ml [1]: 2 score 1-5
scattering score, HT115, inhibitor 100 µg/ml, HGF 50 ng/ml [1]: 1 score 1-5
scattering score, MDCK, inhibitor 0.1 µg/ml, HGF 7 ng/ml [1]: 5 score 1-5
scattering score, MDCK, inhibitor 1 µg/ml, HGF 1 ng/ml [1]: 1 score 1-5
scattering score, MDCK, inhibitor 1 µg/ml, HGF 5 ng/ml [1]: 3 score 1-5
scattering score, MDCK, inhibitor 1 µg/ml, HGF 7 ng/ml [1]: 3 score 1-5
scattering score, MDCK, inhibitor 1 µg/ml, HGF 10 ng/ml [1]: 3 score 1-5
scattering score, MDCK, inhibitor 5 µg/ml, HGF 10 ng/ml [1]: 2 score 1-5
scattering score, MDCK, inhibitor 10 µg/ml, HGF 1 ng/ml [1]: 1 score 1-5
scattering score, MDCK, inhibitor 10 µg/ml, HGF 5 ng/ml [1]: 1 score 1-5
scattering score, MDCK, inhibitor 10 µg/ml, HGF 7 ng/ml [1]: 1 score 1-5
scattering score, MDCK, inhibitor 10 µg/ml, HGF 10 ng/ml [1]: 1 score 1-5
scattering score, MDCK, inhibitor 10 µg/ml, HGF 30 ng/ml [1]: 2 score 1-5
scattering score, MDCK, inhibitor 30 µg/ml, HGF 10 ng/ml [1]: 1 score 1-5
scattering score, MDCK, inhibitor 30 µg/ml, HGF 30 ng/ml [1]: 1 score 1-5
scattering score, MDCK, inhibitor 30 µg/ml, HGF 100 ng/ml [1]: 2 score 1-5
scattering score, MDCK, inhibitor 100 µg/ml, HGF 100 ng/ml [1]: 1 score 1-5

Substance: hepatocyte growth factor (HGF) (from UniProt P14210 32-728) (ligand)
scattering score, MDCK, no inhibitor, HGF 5-100 ng/ml [2]: 5 score 1-5
